Reference: patent publication US5637463

Assays:
Experiment in all cases: yeast two-hybrid with co-expressed Lck, LacZ reporter
[1] = biological target: LexA-βCT fusion protein (C-terminus of the rat β subunit of FcεRI), co-expressed with Lck (E. coli; rat)
[2] = biological target: LexA-FcεRIγCT mutant with Tyr64 changed to phenylalanine, co-expressed with Lck (E. coli; human) (UniProt P0A7C2)
[3] = biological target: LexA-FcεRIγCT mutant with Tyr75 changed to phenylalanine, co-expressed with Lck (E. coli; human) (UniProt P0A7C2)
[4] = biological target: LexA-NLS-FcεRIγ CT fusion protein, co-expressed with Lck (tyrosine-phosphorylated) (E. coli; human) (UniProt P0A7C2)
[5] = biological target: LexA-FcεRIγCT double mutant with Tyr64 and Tyr75 changed to phenylalanine, co-expressed with Lck (E. coli; human) (UniProt P0A7C2)

Substance | Galactosidase units (Galactosidase units) [1] | Galactosidase units (Galactosidase units) [2] | Galactosidase units (Galactosidase units) [3] | Galactosidase units (Galactosidase units) [4] | Galactosidase units (Galactosidase units) [5]
Vmw65-Lyn SH2 fusion protein (human Lyn amino acids 124-229) (from UniProt P06492) | 858 | 0 | 0 | 0 | 0
Vmw65-SykN SH2 fusion protein (human Syk amino acids 11-111) (from UniProt P06492) | 0 | 0 | 0 | 0 | 0
Vmw65-Syk N+C SH2 fusion protein (human Syk amino acids 11-262) (from UniProt P06492) | 1070 | 0 | 0 | 559 | 0
Vmw65-SykC SH2 fusion protein (human Syk amino acids 173-262) (from UniProt P06492) | 593 | 0 | 0 | 0 | 0
